# Read-outs that look alike come from different tables or passages of the source.
# B1: IL-29: human IL-29 cytokine polypeptide (zcyto21), e.g. SEQ ID NO:20 (protein, listed as Homo sapiens)
# chain: MAAAWTVVLVTLVLGLAVAGPVPTSKPTTTGKGCHIGRFKSLSPQELASFKKARDALEESLKLKNWSCSSPVFPGNWDLRLLQVRERPVALEAELALTLKVLEAAAGPALEDVLDQPLHTLHHILSQLQACIQPQPTAGPRPRGRLHHWLHRLQEAPKKESAGCLEASVTFNLFRLLTRDLKYVADGNLCLRTSTHPEST
# modifications: SIGNAL (1)...(19)
# Columns and labels:
# OAS = OAS activity in serum and plasma of mice (OAS radioimmunoassay); format: in vivo, mouse; settings: C57BL/6 mice
# Procedure: Serum and plasma were isolated from mice at varying time points, and OAS activity was measured using the OAS radioimmunoassay (RIA) kit from Eiken Chemicals (Tokyo, Japan).
# Polio virus [1] = format: cell-based; settings: Vero
# AML-12 cells = assay: ISG induction in the mouse liver cell line AML-12 (real-time PCR); format: cell-based; settings: AML-12, 20 ng/ml, 48 hour time point; mRNA relative to HPRT gene expression
# Procedure: AML-12 cells were plated in 6-well plates in complete DMEM media at a concentration of 2×10^6 cells/well. […] As a control, cells were either stimulated with mouse IFNα (positive control) or unstimulated (negative). […] RNA was isolated from cell pellets using RNAEasy-kit® (Qiagen, Valencia, Calif.). RNA was treated with DNase (Millipore, Billerica, Mass.) to clean RNA of any contaminating DNA. cDNA was generated using Perkin-Elmer RT mix. ISG gene induction was evaluated by real-time PCR using primers and probes specific for mouse OAS, Pkr and Mx1. To obtain quantitative data, HPRT real-time PCR was duplexed with ISG PCR. A standard curve was obtained using known amounts of RNA from IFN-stimulated mouse PBLs. All data are shown as expression relative to internal HPRT expression.
# Coxsackie B4 virus [2] = format: cell-based; settings: KB
# [3] = test system: Influenza (type A [H3N2]); format: cell-based; settings: Maden-Darby Canine Kidney
# Parainfluenza virus [4] = format: cell-based
# [5] = test system: human marrow mononuclear cells
# EMCV = EMCV antiviral assay (MTT dye uptake) in HepG2 cells; format: cell-based, encephalomyocarditis virus; settings: cytokine 24 hours before EMCV challenge
# West Nile virus = format: cell-based; settings: Vero
# [6] = test system: Influenza (type A [H3N2]); format: cell-based; settings: Vero
# Polio virus [7] = format: cell-based; settings: Vero cells, Neutral Red Assay
# Vaccinia virus = format: cell-based; settings: Vero cells, Neutral Red Assay
# [8] = test system: Venezuelan equine encephalitis virus; format: cell-based; settings: Vero cells, Neutral Red Assay
# Coxsackie B4 virus [9] = format: cell-based; settings: KB cells, Neutral Red Assay
# Adenovirus = format: cell-based; settings: A549 cells, Neutral Red Assay
# [10] = test system: 293 HEK cells overexpressing zcytor19; assay: Inhibition of ligand-induced ISRE-luciferase signaling by soluble receptors; format: cell-based, human; settings: 10 ng/ml ligand, 10 micrograms/ml soluble receptor, 4-hour; relative to PBS alone
# HHV-8 = HHV-8 replication in BCBL-1 cells (TaqMan PCR extracellular HHV-8 DNA; dye uptake TC50); format: cell-based, human herpesvirus-8
# Procedure: The therapeutic index (TI) is calculated as TC50/IC50.
# Parainfluenza virus [11] = format: cell-based; settings: MA-104 cells, Neutral Red Assay
molecule,measurement,setting,value
B1,OAS activity in the serum and plasma of mice,"OAS; i.v, 10 μg-250 μg",induced OAS activity
same,OAS-1 hr (OAS activity),"OAS; plasma, 1 hr, 250 μg i.v.",80 pmol/dL of plasma
same,OAS-6 hr (OAS activity),"OAS; plasma, 6 hr, 250 μg i.v.",80 pmol/dL of plasma
same,OAS-24 hr (OAS activity),"OAS; plasma, 24 hr, 250 μg i.v.",180 pmol/dL of plasma
same,OAS-48 hr (OAS activity),"OAS; plasma, 48 hr, 250 μg i.v.",200 pmol/dL of plasma
same,EC50 Visual,Polio virus [1],>10 µg/mL
same,IC50 Visual,Polio virus [1]; numerator of SI,>10 µg/mL
same,Mx1,AML-12 cells,0.07
same,OAS,AML-12 cells,0.04
same,PkR,AML-12 cells,0.02
same,EC50 Visual,Coxsackie B4 virus [2],>10 µg/mL
same,IC50 Visual,Coxsackie B4 virus [2]; numerator of SI,>10 µg/mL
same,EC50 Visual,[3],>10 µg/mL
same,IC50 Visual,[3]; numerator of SI,>10 µg/mL
same,EC50 Visual,Parainfluenza virus [4]; MA-104,>10 µg/mL
same,IC50 Visual,"Parainfluenza virus [4]; MA-104, numerator of SI",>10 µg/mL
same,bone marrow cell expansion,[5]; in the presence of IL-2 or IL-15,small inhibition
same,expansion of bone marrow cells,"[5]; in the presence of IL-3, IL-4, IL-5, IL-7, IL-10, IL-12, IL-21 or no added cytokine",no significant effect
same,"EC50 (antiviral activity, OD570)",EMCV,0.0006 µg/mL
same,EC50 Visual,West Nile virus,0.032 ng/mL
same,IC50 Visual,West Nile virus; numerator of SI,>10 µg/mL
same,EC50 Visual,[6],>10 µg/mL
same,IC50 Visual,[6]; numerator of SI,>10 µg/mL
same,EC50 NR,Polio virus [7],>10 µg/mL
same,IC50 NR,Polio virus [7],>10 µg/mL
same,EC50 NR,Vaccinia virus,>10 µg/mL
same,IC50 NR,Vaccinia virus,>10 µg/mL
same,EC50 NR,[8],0.05 µg/mL
same,IC50 NR,[8],>10 µg/mL
same,EC50 NR,Coxsackie B4 virus [9],>10 µg/mL
same,IC50 NR,Coxsackie B4 virus [9],>10 µg/mL
same,EC50 NR,Adenovirus,>10 µg/mL
same,IC50 NR,Adenovirus,>10 µg/mL
same,Percent Inhibition of Ligand-induced ISRE Signaling by HuCRF2-4-Fc,[10],79%
same,Percent Inhibition of Ligand-induced ISRE Signaling by Huzcytor19-Fc,[10],45%
same,Percent Inhibition of Ligand-induced ISRE Signaling by Huzcytor19-Fc/huCRF2-4-Fc,[10],16%
same,Percent Inhibition of Ligand-induced ISRE Signaling by Muzcytor19-Ig,[10],103%
same,TI (TC50/IC50),HHV-8,> 1.85
same,IC50 (extracellular HHV-8 DNA),HHV-8; six days,6.5 µg/mL
same,EC50 NR,Parainfluenza virus [11],>10 µg/mL
same,IC50 NR,Parainfluenza virus [11],>10 µg/mL
